Data on 4 molecules can be found in patent publication US20130090457A1 (Janssen / Centocor, published 2013).

For test [1], the target named is full-length murine TLR3 on cells (mouse, UniProt Q99MB1 26-905). Kind of test: cell-based or functional assay.
The target in a further test is cynomolgus TLR3 on cells (cynomolgus, UniProt A0A2K5WT39 32-912). Kind of test: cell-based or functional assay.

B1: mAb 5429 (antibody, mouse IgG1, kappa, V domains shown)
VH: EVQLVASGGGLVKPGASLKLSCVASGFTFSDYWMAWVRQTPGKPMEYIGDIKSDGSKVNYAPSLKNRFTISRDNARTTLYLQMSNVRSEDTATYYCNRDIGPDWYFDFWGPGTMVTVSS
VL: DIQMTQSPTSLSASLGETVTIECRASEDIYNGLAWYQQKPGKSPQLLIYDSNSLHTGVPSRFSGRGSGTQYSLRINSLQSEDVASYFCQQYYDYPLTFGSGTKLEIKR
Turning to B1, in test [1], the “IC50 in the ISRE reporter gene assay, murine TLR3-transfected HEK293T, poly(I:C)” value (“IC50 in the ISRE reporter gene assay” below) came out at 0.5 µg/mL.

B2: mAb c1811 (antibody, mouse IgG1, kappa, V domains shown)
VH: EVQLVASGGGLVKPGASLKLSCVASGFTFSDYWMAWVRQTPGKPMEYIGDIKSDGSKVNYAPSLKNRFTISRDNARTTLYLQMSNVRSEDTATYYCNRDIGPDWYFDFWGPGTMVTVSS
VL: DIQMTQSPTSLSASLGETVTIECRASEDIYNGLAWYQQKPGKSPQLLIYDSNSLHTGVPSRFSGRGSGTQYSLRINSLQSEDVASYFCQQYYDYPLTFGSGTKLEIKR
For the molecule B2, the “IC50 in the ISRE reporter gene assay” value in test [1] worked out at 0.7 µg/mL.

B3: mAb 15EVQ (antibody, human IgG4 S228P, kappa, F234A L235A)
heavy: not shown
light: DIQMTQSPSSLSASVGDRVTITCRASQSIGLYLAWYQQKPGKAPKLLIYAASSLQSGVPSRFSGSGSGTDFTLTISSLQPEDFATYYCQQGNTLSYTFGQGTKVEIKRTVAAPSVFIFPPSDEQLKSGTASVVCLLNNFYPREAKVQWKVDNALQSGNSQESVTEQDSKDSTYSLSSTLTLSKADYEKHKVYACEVTHQGLSSPVTKSFNRGEC
On to B3, for which, in the test with cynomolgus TLR3 on cells, the “IC50 in the cyno ISRE reporter assay” value is 1.74 µg/mL and the “IC50 in the cyno NF-κB reporter assay” value was determined as 4.18 µg/mL.

B4: mAb 15 (antibody, human IgG4 S228P, kappa)
heavy: not shown
light: DIQMTQSPSSLSASVGDRVTITCRASQSIGLYLAWYQQKPGKAPKLLIYAASSLQSGVPSRFSGSGSGTDFTLTISSLQPEDFATYYCQQGNTLSYTFGQGTKVEIKRTVAAPSVFIFPPSDEQLKSGTASVVCLLNNFYPREAKVQWKVDNALQSGNSQESVTEQDSKDSTYSLSSTLTLSKADYEKHKVYACEVTHQGLSSPVTKSFNRGEC
As for B4, in test [1], the “IC50 in the ISRE reporter gene assay” value amounted to 22 µg/mL.
